Target: human IgG1 (solid phase in surface plasmon resonance) (human)
Assay: SPR

“soluble recombinant FcγRIIa-HR (high-responder, arginine R134 allele of FcγRIIa), glycosylated (from UniProt P12318 37-206) (receptor)” was tested, and the Kd was 500 µM.

Source: article PMC3282893
